The assay concerns the target T1, EGFR (UniProt P00533 25-645, limits assumed).
T1 construct: also called 表皮生长因子受体
As to the kind of experiment: not described (summary of experimental results; compared with C225, 2F8 and 3C6).

Data on one molecule can be found in patent CN102167743A (BAIMAIBO PHARMACEUTICAL CO LTD, dated 2011).

B1: 全人源抗EGFR抗体15H8 (antibody, human IgG1, kappa, V domains shown)
VH: EVQLVESGGGLVQPGGSLRLSCAASGFTFSSYAMHWVRQAPGKGLEYVSAISSNGGSTYYANSVKGRFTISRDNSKNTLYLQMGSLRAEDMAVYYCAREGYSSSWYHNWFDSWGQGTLVTVSS
VL: DIVMTQTPLSLPVTPGEPASISCRSSQSLLDSDDGNTYLDWYLQKPGQSPQLLIYTLSYRASGVPDRFSGSGSGTDFTLKISRVEAEDVGVYYCMQRIEFPSLYTFGQGTKLEIKR
notes: Whole human antibody expressed in CHO-K1 and purified on Protein A. The expression genes carry a signal peptide, printed only as nucleotides; also called 15H8抗体; 全人源抗体15H8
Consider B1, for which the binding result is reported as “binds”.
